Reference: US20020141999A1

Target: HuCD7-TR (human CD7 containing an internal deletion of the 36 amino acid tandem repeat) (human) (UniProt P09564)
Assay: HuK12-Fc on transfected COS-1 cells, 125I anti-human Fc, phosphorimager

HuCD7-TR (human CD7 containing an internal deletion of the 36 amino acid tandem repeat) (human), sequence (P09564 other isoform, or with tags, fused parts or gaps limits assumed): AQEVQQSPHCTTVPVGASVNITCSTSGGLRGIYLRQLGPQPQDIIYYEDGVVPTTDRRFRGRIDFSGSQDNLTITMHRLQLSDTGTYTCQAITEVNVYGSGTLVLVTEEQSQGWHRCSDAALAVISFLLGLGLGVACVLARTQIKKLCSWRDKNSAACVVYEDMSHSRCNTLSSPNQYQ

fold less relative binding than to full length HuCD7: 10 fold
B1: human K12-Fc fusion protein (extracellular domain of human K12 fused to the Fc portion of human IgG1) (Fc fusion, not shown: a dimerising Fc or GST)
chain: QNEGWDSPICTEGVVSVSWGENTVMSCNISNAFSHVNIKLRAHGQESAIFNEVAPGYFSRDGWQLQVQGGVAQLVIKGARDSHAGLYMWHLVGHQRNNRQVTLEVSGAEPQSAPDTG
